A protein production outcome set (Wang et al. 2014)

Assay: label from the status in PepcDB records

| Sequence | protein production |
| --- | --- |
| MPFTPVDWAILGIVAISALISLKRGFVKEALSLTTWIIAGVVAWMFGAGLSQYLVNYIETPSARVIASCTILFVATLLVGAMVNFLIGELIRVTGLSGTDRFLGMVFGAARGGLLVVVAVGLLSLGPVQQDQWWQQSRLVPQFLIVADWSKNLILGMSSKWLASGISVPADLPFKEQILPPTLPQDVLGKSSSTK | failed |
| MPFVAVATCLSPLIICYPQNRTMECDLLMIKIEKVINKNDLKAFIAFPSSLYPDDPNWIPPLFIERNEHLSAKNPGTDHIIWQAWVAKKAGQIVGRITAQIDTLHRERYGKDTGHFGMIDAIDDPQVFAALFGAAEAWLKSQGASKISGPFSLNINQESGLLIEGFDTPPCAMMPHGKPWYAAHIEQLGYHKGIDLLAWWMQRTDLTFSPALKKLMDQVRKKVTIRCINRQRFAEEMQILREIFNSGWQHNWGFVPFTEHEFATMGDQLKYLVPDDMIYIAEIDSAPCAFIVGLPNINEAIADLNGSLFPFGWAKLLWRLKVSGVRTARVPLMGVRDEYQFSRIGPVIALLLIEALRDPFARRKIDALEMSWILETNTGMNNMLERIGAEPYKRYRLYEKQI | failed |
| MPGAVDFKERISRQRPHDRETYGHAGNTDLQDIVYQLESDRGRIVNSAAVRRLQQKTQVFPLERNAAVRSRLTHSLEVQQTGRFIVRTLFRQLGPRAAEVGLDGLEGALESLVEMACLMHDVGNPPFGHFGEYAINDWFERNLDALFERRIPPGQGDGLLQQRMLTDLKHFEGNAQAIRLVVKLLRLNLTYTQTAGLLKYVRPAYEPKPDKAAANHYLNKKPGFYLSEEAFVDELRRVLGMRPGTRHPVAYIMEAADDISYCLADIEDSVEKGILDIRQLADLLVKKFAVHHSPDAPIPGDADNMSFQRMVDYSLEKAEREPINKVSEFFIRLRVKMIHPLVQHAAQQFIDNFEAVHAGTLGRALMEDGSLPHAIVQTFKDVAMEWVFCHPEVETLELQGYRIIQGLLDFYAPLLRLPAEEFQALAEGRQAAAPHPQLLVRRLPSQQIKAYLEAMKGVAEDPLQRQWEFYHRCRMLQDFVSGMTDQHAQDEYRALSA | failed |
| MPGDTENTSTDTTNEHIDLALYRQLVKQFIDMRRYSTALFWAEKVAVLGGLEPRDIYYQAQCMYLLGEYHRAAHTIQHHKLEKNSLPCFNLLLESLYAAKEFTEAANVIQNVEVEVMTTSLINQPVDASSGCYLESNSVFGGEENHRNELLSSIYLMKGKVYEALDNRGMAMDFYVQALHKSIYCFEALEALVQHEMLMAWEEFELMHHLPLAQQSSEADAKFILKLYESRLKKYYELISARNAEEMSPIVNPDILQFIKEFTARVQQSGSSDTQMPKVSAVKVPLTPSQFMSPAQKVLEDLKAPTFSLQTSLSKASSLIDASHRSMFDSSSRRRSRDHDTDTLIPIAECLDRVQRSTDLMAAEAEKCFYDCDYKQCLKILNELLKVDPFHNTALTIQIACLVENGDFNRLFYVAHKLVDRYPDKAISWYAVGCYYDMIGKSDPARRYLSKATALDRLYGPAWLAYGHSFANENEHEQAMAAYFKATQLMRGCHLPLLYIGVECGLTKNLELAEKFFLQAMNIAPLDVYVLHELGVIKYEYEFFDGAATIFQCTVDIVKQRAKSNNEEISSRWEPLFINLGHSLRKVHKYEEALYNFQYALLLKPQSPTTYTSIGFIHALLGNLDPAIEAFHKSLALNRDCIVTSTILKSCIEDLMDDSATIDEICSAALRDVAKNITANSRRVLNSDKFNGMKLKFDEEEEFANSDSNMVVEMSFDT | failed |
| MPGEEVSQAKQQLKLIIDAYLSESDVDNVLAACDFADLAHSGITRKSGEPYILHPIAVSCILAHMRLDAETLMAALLHDVIEDTEHTKDEIGERFGEVVADLVDGVTKLTHSSDKQYNKAASFRKILQATLQDPRVIIIKLADRYHNMTTLDALRPDKRARIAQETFDIFVPMARIVGMNEMGDNLELLCYQNLDLDMYNNVQEALLETKPRRCEYQTKWEHHLGELLTTYHIHGRVKKKNNNIELLRHFVKNEIDLQELTHSHAFEIILNSISDCDRLVDALKENFQILHFEDHIRRPLPGGNQSIMMKLKGEQTTLSLTIQTELMRKAARFGVVLGENAPQACRSAIQASMQNLTTLIDGECAKTTFNDLLDYLHQEKIWVYTPHGHLHELPQGATVIDFAYSASLFLGNHAVGAKIDGEIRPLSTPLVSGQVIDVITDVLATPNPDWLSFINTQKARRAIQNMLRDQDIEEQLLVGQQALNRALKLFNRSMHDLSESDWLNVLQWRHVENKEALFEQIAVGDLLPQLVANHLYAQDTSDKTGHAPDRLIQGTEGVDVKYAHCCNPILGDPIQGHLSRRGLIVHRARCHNLLHEQHLHPENIMPLQWTSDDLDDVSFTAYLCIDMPLDGEQISELIYLCRKSHTGVEMVQPHGDHTYVNIVVNNRKVVAQIIRDLRMLFGFPRVSRLFTPAAVTESVKIKVS | failed |
| MPGESNIIEWPASRVRVISGASWSRNGQILSGRCKANNGTWFGITKGGRVAFLVNTSLLLDRVKSYSGSELYPVRFLEGNMSPEQFANEVKVHEKETNERHAYSLVVADMTSSSMVHILKPSDTKSDVVIETVPFGVHTLSSYEGLDSTDSARDLLLRRLFTQMVGNLGNVQQRQMEEIAGRFMYDAQAGRDAVFYHSRDEHPNGKLGTQRFGTTSTTALVVKRTREVMLFEKYMEQNGAWNTNNFAFNIQKQQKLYPNLDKEALKRVGVFALEEVNNHEHDIHPDLMPSFFEDDMLKVKFNEMIARHAKLPPIKNIVEDLMMKSPFFIDSVDGAGKKVRYRTVRTLGMDIKANRPQGRFYERHLNDNGEWVG | failed |
| MPGIKVHPNESFDEAYRKFKKQVDRNLVVTEVRARRFFEPMTEIRKKQKISARKKMLKRLYMLRRYESRLLEHHHHHH | failed |
| MPGKLTATILTRNEAANIGDCIDSLAQLADEVIVLDSGSTDATRDIARARGANVIEDDGPWPGFGPQKNRALDRATGEWVLSIDADERVPPELAQEIRTAMARADADAYAIPRLSQFCGAWVHHSGWRPDHVIRLFRRGKARFSENLVHESLQVTGNVARLRTSLLHYSYTSMDQVHRKSAQYAEAGARDLTQRGKHIGALSPVLHGTWAFVRTLVLRRGFLDGGTGLAIARMNATVSYRKYRRARELASGANHRPLEHHHHHH | failed |
| MPGSALKYRDLRDFLAQLERQGELKRITAPVSTRLEMTEIADRVLRAGGPALLFENARHNDAPADMPVLANLFGTPRRVAWGMGADDVGALRETGELLASLREPEAPKGLRDALAKVSMLKAALWDMSPKTVRSAACQEIVWEGADVELSRLPIQTCWPGDVAPLLAWGLVITRGPNARRQNLGIYRQQPLGPNKLIMRWLSHRGGALDFRDHAQAHPGKPFPITVALGADPATILGAVTPVPDTLSEYQFAGLLRGSRTEVVKALGSDLSVPASAEIVLEGHLLPADDPRAVAAVVPEGANPPPATGYEMALEGPYGDHTGYYNEQDWFPVFTVDRITMRRNPIYHSTYTGKPPDEPAVLGVALNEVFVPLLRRQLPEIVDFYLPPEGCSYRLAVVSIRKQYAGHAKRVMFGLWSVLRQFMYTKFIVVVDEDIDPRDWTEVVWAMTTRMDPVRDTVLVENAPIDYLDFASPVSGLGGKMGLDATNKWPGETSREWGTPIHMDEAVKRRVDAMWDTLGLLEHHHHHH | failed |
| MPGTKQVNVGSLKVGQYVMIDGVPCEIVDISVSKPGKHGGAKARVVGIGIFEKVKKEFVAPTSSKVEVPIIDRRKGQVLAIMGDMVQIMDLQTYETLELPIPEGIEGLEPGGEVEYIEAVGQYKITRVIGGK | not failed |
| MPHASQIVISISLFLMSMVAVAQKTIDIKKFNLVAEQVTELKKTDLVLSLKQLTTFENVLSALTVEQNLVYFKLLAEIQIEQNRYSAAKKTANEGLIIGRRLASPSILMSELLYLRGFSFESLGNIPRATKEYKKGLEVAESLHNKIQVALGLINLGAIAYLTDNYKRSLVLLNDAYNIAGQTDDEELKGTANTELGILYSLLRQGDQSMAYYQQSYKHFKKAGLLLSAHNSLHNIAITHIREKRYEQAITVFKTIIAESNKDTSSDSMFTVYSGMAWAHLKKKDSNIDAAHQYLLLAKQYLQFTEKVDYRLQFYFDEASVLYKLERFDEVLISIARIEKILVNHEDMPKRKRKGYVNIINLKAKVFYKQEKFKQAYETKSRVIALTEKLYENEDNRSIAQVRLKLEAEQADKQNEILNNQKSRYEASFNEAKLENEEQRIYLIISALLALAFAWVLVKLIQSQKKLKVALNVDKLTGTANRRRLMVKSQQAFELAKVKQYHLSLMMINIDHFKGINDSLGHSIGDEVLAKVAFIGANMVRKNDVFGRFSGGEFMVCLPKTNLKLAMETAECIRAAINEHTWQLNNIEKISVSIGVATLTDDSELISLVKRAEEQLYQAKASGKNKVCAQ | failed |
| MPHELSWGDIYFSPTLLVLFLAVTATWITVMILNKTRLSRFIAFPSLTFIAIMVGYVVAIDSFYIQF | failed |
| MPHFLAKLDFKPLEYPLIEGDFCFHREFLSLKNPTKSCVYASFKDRIFLLQKIRRANDFLIKSEKATPLKREVLKQALRIYSQSFEVISHNLQENSKHASGKKTLDLGTFEDFIQKNQAPILIEIGFGSGRHLIELAKNNPTKTCLGIEIHTPSIAQALKQIELLDLKNLHILQGDGRLVLESMPNHRCEKIFVHFPVPWNEKKHRRVLSEKFLNEALRVLKPRGFLELRTDDSLYFEDSLKLALKNFQCEIEIKKNAQIPVVSKYEARWNKLKKDIYDLRIYSLEWNETPFDNHAFDFSFDTITISKKSVGTILKTKKIIQEGYFVHVCNIYENKGDFLVELSMGDFDWPVRLFVLLTENQIFYLNKSPLKTLNNHKAHLLLQNILSQKGIG | failed |
| MPHGVEVEPGVAKLTTYASKQATDMGAIYVNSKGDRIVNESNVYTTFRNAILKQADKVAYLVMDERTWKKVYDLLILHDFTPEEIKSFFENKGKRPVFVKGSLESAAEQAGIVVDELVQTVKNYQGYVQDGHDHDFGRDPKYLHQFEGETFYIIEQRLEHHHHHH | not failed |
| MPHPATMFLLLTMAVVFLSWICDIYGLKVTLPQSGEDIRVQSLLSPEGIRWWLRNAIKNFTGFAPLGMVIIAMFGLGVAQHSGFIDACIRLGVGNRKEKRKVILWVIVLGLLSNVIGDGGYIILLPIAAMLFQWVGLHPIAGIVTAYVSVACGYSANIVLSTMDPLLAHTTQEAALTLMGYQGNTEPLCNYFFMSASTVVITGIVYWVTQKWLLPNLGKYEGSVKVEAYRPLSRKERRALMVAVVVAGIYVALILWLTFSSYGILRGVNGGLMHSPFIAGILFLLSLGAGFTGMAYGFSSGRYRSDNDVIEGLTQPIKLLGVYFVIAFFAAQMFACFEYSHLDKCLAIMGADLLSSFEPAPLSALILFILFTAFINLIMVSATSKWAFMSFIFIPMFAQMGISPDVTQCAFRIGDSSTNAITPFLFYMPLVLTYMRQYDKQITYGSLLKYTWRYSLCILAAWTLLFIVWYLLKIPMGL | failed |
| MPHRCAAQVVAGYRSTVSLVLVEHPRPEIAQITLNRPERMNSMAFDVMVPLKEALAQVSYDNSVRVVVLTGAGRGFSPGADHKSAGVVPHVENLTRPTYALRSMELLDDVILMLRRLHQPVIAAVNGPAIGGGLCLALAADIRVASSSAYFRAAGINNGLTASELGLSYLLPRAIGSSRAFEIMLTGRDVSAEEAERIGLVSRQVPDEQLLDACYAIAARMAGFSRPGIELTKRTLWSGLDAASLEAHMQAEGLGQLFVRLLTANFEEAVAARAEQRAPVFTDDT | failed |
| MPIGFLRSLTARHRNPVSNRRLARVLCFVAGAANAGGFLAVQQYTSHMSGIVSAIADDLVLQRYGLVVHGIGALASFLAGAGTTAILVNWARRARLRSEYAIPLLVEATLLLCFGLLGSHLNDMDWLFVPATVMLLCFMMGLQNALITKLSNAEIRTTHVTGMVTDIGIELGKLFYWNAAVRPNSRPVMADRHKLRLLTVLVGMFLVGGIVGAQAFSTLGYAATLPLAALLLIVAIIPVADDLLTRLLLRVHRADSARRARRWGARGR | failed |
